US20140162285A1, “Methods of Modulating Vesicular Trafficking” (The General Hospital Corporation, priority 2009, published 2014)
Entries after “also recorded” stand apart in the source; their conditions may differ. Ends that are not written are not given here.

T1: 6His-a2N(wt) (Mus musculus, UniProt P15920)
T1 construct: amino acid residues 1-402 of mouse V-ATPase a2-subunit (a2N1-402); made in house; host or cells: cell-free in vitro translation
T1 sequence (P15920 1-402): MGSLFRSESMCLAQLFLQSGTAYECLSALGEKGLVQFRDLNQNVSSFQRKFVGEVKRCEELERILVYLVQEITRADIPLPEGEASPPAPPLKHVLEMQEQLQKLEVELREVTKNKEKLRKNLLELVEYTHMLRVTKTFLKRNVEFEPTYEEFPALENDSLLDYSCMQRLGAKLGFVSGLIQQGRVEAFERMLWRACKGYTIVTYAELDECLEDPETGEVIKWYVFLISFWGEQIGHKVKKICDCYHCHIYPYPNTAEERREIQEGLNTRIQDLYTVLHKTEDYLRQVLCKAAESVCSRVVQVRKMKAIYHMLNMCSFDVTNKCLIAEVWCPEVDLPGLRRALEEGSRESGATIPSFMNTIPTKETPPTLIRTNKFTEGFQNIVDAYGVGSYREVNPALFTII

T2: GST-ARNO(wt) (Homo sapiens, UniProt Q99418)
T2 construct: i) 1-400aa, full length ARNO(wt); made in house; host or cells: E. coli BL21(DE3)
T2 sequence (Q99418 1-400): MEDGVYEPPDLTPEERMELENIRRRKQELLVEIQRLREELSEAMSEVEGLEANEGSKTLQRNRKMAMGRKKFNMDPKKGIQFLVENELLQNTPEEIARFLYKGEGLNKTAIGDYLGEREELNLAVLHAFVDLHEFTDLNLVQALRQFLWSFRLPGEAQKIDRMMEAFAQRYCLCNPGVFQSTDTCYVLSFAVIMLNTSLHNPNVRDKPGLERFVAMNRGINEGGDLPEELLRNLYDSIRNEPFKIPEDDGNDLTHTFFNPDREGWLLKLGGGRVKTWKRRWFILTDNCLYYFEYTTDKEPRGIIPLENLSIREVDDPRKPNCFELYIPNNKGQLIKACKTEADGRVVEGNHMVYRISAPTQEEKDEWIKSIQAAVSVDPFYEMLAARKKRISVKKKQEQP


Experiments:
6His-a2N(wt) = biological target: T1, 6His-a2N(wt); assay: ARNO-derived peptide pull-down with in vitro translated 6His-a2N(wt); format: binding; conditions: 7 nmol biotin-tagged peptide on streptavidin-agarose beads
Experimental: FIGS. 4B-C are images of Western blots showing (4B) the results of peptide pull-down assays for interaction of a2N with Sec7-PH-linker of ARNO and (4C) phosphorylation-dependent interaction of a2N with ARNO-derived peptide corresponding to the PB-domain of ARNO. Corresponding ARNO-derived peptides were immobilized on streptavidin-beads and incubated with in vitro translated recombinant a2N. Interacting complexes were eluted and analyzed by Western blotting using anti-a2N antibodies.
ARNO-derived peptides, equal amounts (7 nmol) of biotin-tagged synthetic peptides were also immobilized on streptavidin-agarose beads followed by incubation with 10 μl of in vitro translated 6His-a2N(wt) recombinant protein. Pull-down experiments and SDS-PAGE analysis were performed as described above and interacting 6His-a2N/ARNO-derived-peptide complexes were analyzed by Western blotting using polyclonal anti-a2N antibody. All experiments were repeated at least three times with similar results.

GST-ARNO(wt) = biological target: T2, GST-ARNO(wt); assay: recombinant protein pull-down of in vitro translated a2N-N / a2N-C with GST-ARNO(wt); format: binding; conditions: 35S-labeled in vitro translated protein, autoradiography
Source text: FIG. 2C is an image of a Western blot showing that both the amino terminus (a2N-N) and carboxyl terminus (a2N-C) of the cytosolic tail of the a2-subunit interact with ARNO(wt). Left panel, a pull-down (PD) of in vitro translated metabolically labeled a2N-N (a2N1-133) with recombinant GST-only and GST-ARNO(wt) used as a baits. […] Right panel, a pull-down (PD) of in vitro translated metabolically labeled a2N-C (a2N134-393) with recombinant GST-only and GST-ARNO(wt) used as a baits.
The purified recombinant GST-ARNO(wt) and GST-tagged ARNO domain constructs ([…]) were incubated with 10 μl of in vitro translated 6His-a2N recombinant protein at 4° C. for 2 hours in 500 μl of binding buffer (10 mM HEPES, 1 mM EDTA, 1 mM DTT, 100 mM NaCl, 10% glycerol, 0.1% NP-40) with gentle rotation. Then the interacting recombinant proteins were immobilized on glutathione beads by incubation with 50 μl of 50% glutathione Sepharose 4B slurry for 2 hours at 4° C. The beads were collected by centrifugation and washed 5 times with 500 μl ice-cold binding buffer. Interacting proteins were eluted by boiling in SDS-PAGE sample buffer for 10 min at 95° C., resolved by SDS-PAGE and analyzed by Western blotting using polyclonal anti-a2N antibodies. […]

Molecule | interaction of ARNO-derived peptide with a2N (6His-a2N(wt)) | interaction with GST-ARNO(wt) in pull-down (GST-ARNO(wt))
ARNO375-400: biotinylated non-phosphorylated peptide covering the PB-domain of ARNO plus four PH/PB-linker amino acids, SEQ ID NO:32 (VSVDPFYEMLAARKKRISVKKKQEQP; also: biotinylated, site not given here) | direct interaction | 
a2N-C: C-terminal part of a2N, amino acid residues 134-393 of the mouse V-ATPase a2-subunit, in vitro translated (protein) MSGSHHHHHHSSGIEGRGRLIKMTVTKTFLKRNVEFEPTYEEFPALENDSLLDYSCMQRLGAKLGFVSGLIQQGRVEAFERMLWRACKGYTIVTYAELDECLEDPETGEVIKWYVFLISFWGEQIGHKVKKICDCYHCHIYPYPNTAEERREIQEGLNTRIQDLYTVLHKTEDYLRQVLCKAAESVCSRVVQVRKMKAIYHMLNMCSFDVTNKCLIAEVWCPEVDLPGLRRALEEGSRESGATIPSFMNTIPTKETPPTLIRTNKFTEGFQNIVDAYGVGSYRE |  | could interact; also recorded: direct interaction
a2N-N: N-terminal part of a2N, amino acid residues 1-133 of the mouse V-ATPase a2-subunit, in vitro translated (protein) MSGSHHHHHHSSGIEGRGRLIKMTMGSLFRSESMCLAQLFLQSGTAYECLSALGEKGLVQFRDLNQNVSSFQRKFVGEVKRCEELERILVYLVQEITRADIPLPEGEASPPAPPLKHVLEMQEQLQKLEVELREVTKNKEKLRKNLLELVEYTHMLR |  | could interact; also recorded: direct interaction
